The target of experiment [1] is Neonatal Fc Receptor (FcRn) (UniProt P55899 24-297; P61769 21-119, limits assumed). Description: SPR specific binding activity, FcRn on NTA chip; ref std #162397940.
Description: The FcRn binding concentration of the sample was determined by interpolation of the binding response on a calibration curve. Specific binding activity (%) was calculated by dividing the FcRn binding concentration by the total protein concentration.
For experiment [2], the target named is T1, BCMA (UniProt Q02223 1-54, limits assumed).
T1 construct: also called antigen; CD269
T1 sequence (looked up): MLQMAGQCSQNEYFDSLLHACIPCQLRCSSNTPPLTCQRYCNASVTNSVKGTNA
Briefly: SPR specific binding activity, protein A capture; ref std #162397940.
Description: (§1) The specific binding activity (%) was calculated by dividing the BCMA or FcγRIIIa binding concentration by the absorbance at 280 nm concentration.

A further experiment deals with T2, FcγRIIIa (UniProt P08637 17-208, limits assumed).
T2 construct: also called CD16a
T2 sequence (P08637 17-208 limits assumed): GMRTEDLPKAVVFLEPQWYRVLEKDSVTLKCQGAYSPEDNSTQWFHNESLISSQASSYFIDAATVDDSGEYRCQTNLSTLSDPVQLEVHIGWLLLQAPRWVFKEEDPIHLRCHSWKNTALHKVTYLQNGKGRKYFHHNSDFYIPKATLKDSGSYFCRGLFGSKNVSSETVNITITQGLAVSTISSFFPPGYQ
The experiment is described as above.

For experiment [3], the target named is T1, BCMA. Briefly: SPR, protein A capture; H2O2-treated 1 h; ref std #182407660A. A general note: In SPR one partner is held on a chip, and binding of the other changes the refractive index at the surface.
Description: as §1
In experiment [4] the target is T1, BCMA. Briefly: SPR as in Example 4; glyco-enriched samples of belantamab.
Description: as §1

Neonatal Fc Receptor (FcRn), sequence (P55899 24-297 limits assumed, form in doubt, chain 1 of 2): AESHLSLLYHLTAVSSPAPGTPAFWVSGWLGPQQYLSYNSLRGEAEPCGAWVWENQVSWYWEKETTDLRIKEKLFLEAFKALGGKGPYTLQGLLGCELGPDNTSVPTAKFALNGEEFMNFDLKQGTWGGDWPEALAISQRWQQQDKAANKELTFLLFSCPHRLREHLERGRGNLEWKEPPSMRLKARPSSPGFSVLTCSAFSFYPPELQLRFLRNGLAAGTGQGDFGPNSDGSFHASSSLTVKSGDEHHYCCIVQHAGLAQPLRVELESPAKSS
Neonatal Fc Receptor (FcRn), sequence (P61769 21-119 limits assumed, form in doubt, chain 2 of 2): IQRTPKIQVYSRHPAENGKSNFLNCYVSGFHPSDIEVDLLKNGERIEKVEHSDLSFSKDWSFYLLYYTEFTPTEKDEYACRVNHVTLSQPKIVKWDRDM
Description for FcγRIIIa: as §1

B1: belantamab mafodotin DL2 species (antibody, human IgG1, kappa)
heavy: not shown
light: not shown
modifications: MMAF on LC C214 of one light chain; drug load of two MMAF per antibody; conjugation sites LC C214 and HC 224 (one embodiment)
As to B1, the “FcRn (%)” value in experiment [1] worked out at 109%. Further, the “BCMA (%)” value with BCMA [2] amounted to 99%. The “FcγRIIIa (%)” value in the experiment with FcγRIIIa came to 104%.

B2: belantamab mafodotin (antibody, human IgG1, kappa)
heavy: not shown
light: not shown
modifications: MMAF on LC C214 in part of the molecules; MMAF conjugated to interchain cysteine sulfhydryls (sites printed at paragraph 239: HC 224, C230, HC 233); heterogeneous drug load DL0 to DL8, average DAR about 4 (2.1 to 5.7 in the DAR samples of Example 4)
notes: Antibody-drug conjugate: belantamab conjugated to MMAF; Tested as lots, as samples of differing average DAR and as forced-degradation samples (oxidised, base, acid, thermal, photo); the sample is named in each row; also called anti-BCMA ADC; ADC
Turning to B2, the “% Antigen Specific Binding” value with BCMA [3] worked out at 99%. Also, in experiment [1], the “FcRn (%)” value amounted to 101%. Further, in the experiment with BCMA [2], the “BCMA (%)” value is 96%. Besides, the “FcγRIIIa (%)” value in the experiment with FcγRIIIa turned out to be 97%.

B3: belantamab mafodotin DL6 species (antibody, human IgG1, kappa)
heavy: not shown
light: not shown
modifications: MMAF on LC C214 of one light chain; drug load of six MMAF; conjugation sites as printed: LC C214, HC 224, LC C230, HC 233, LC C230 and HC 233
On to B3, for which the “FcRn (%)” value in experiment [1] was determined as 97%. In addition, the “BCMA (%)” value in the experiment with BCMA [2] is 89%. For the same molecule, the “FcγRIIIa (%)” value with FcγRIIIa came out at 84%.

B4: belantamab deglycosylated with PNGaseF (antibody, human IgG1, kappa)
heavy: not shown
light: not shown
modifications: N-linked glycans removed with PNGaseF
With B4, the “Specific BCMA binding activity” value with BCMA [4] was found to be 95%.

B5: belantamab mafodotin DL8 species (antibody, human IgG1, kappa)
heavy: not shown
light: not shown
modifications: MMAF on LC C214; drug load of eight MMAF; conjugation sites as printed: LC C214, HC 224, LC C214, HC 224, LC C230, HC 233, LC C230 and HC 233
As for B5, the “FcRn (%)” value in experiment [1] stood at 93%. For the same molecule, the “BCMA (%)” value with BCMA [2] was determined as 86%. Further, in the experiment with FcγRIIIa, the “FcγRIIIa (%)” value is 82%.

B6: belantamab mafodotin DL4a species (antibody, human IgG1, kappa)
heavy: not shown
light: not shown
modifications: MMAF on LC C214; drug load of four MMAF; conjugation sites LC C214, HC 224, LC C214 and HC 224
For B6, in experiment [1], the “FcRn (%)” value amounted to 102%. In addition, the “BCMA (%)” value with BCMA [2] came to 95%. In addition, in the experiment with FcγRIIIa, the “FcγRIIIa (%)” value is 103%.

B7: belantamab mafodotin DL0 species (antibody, human IgG1, kappa)
heavy: not shown
light: not shown
modifications: no drug load
notes: antibody without cytotoxic agent
As for B7, the “FcRn (%)” value in experiment [1] is 108%. In addition, in the experiment with BCMA [2], the “BCMA (%)” value is 103%. For the same molecule, the “FcγRIIIa (%)” value in the experiment with FcγRIIIa came to 110%.

B8: belantamab mafodotin DL4b species (antibody, human IgG1, kappa)
heavy: not shown
light: not shown
modifications: drug load of four MMAF; conjugation sites as printed: LC C230, HC 233, LC C230 and HC 233
On to B8, for which, in experiment [1], the “FcRn (%)” value amounted to 99%. In addition, in the experiment with BCMA [2], the “BCMA (%)” value was 90%. Moreover, the “FcγRIIIa (%)” value in the experiment with FcγRIIIa is 91%.

(Values after patent US20220289859A1 (GlaxoSmithKline, published 2022).)
